# Test results from article PMC12159676, “An uncharacterized gene from the Actinobacillus genus encodes a glucosyltransferase with successive transfer activity and unique substrate specificity” (The Journal of Biological Chemistry, 2025).
# B1: Actinobacillus minor glucoside-glucosyltransferase (AmGGT), wild type (enzyme, Actinobacillus minor NM305, UniProt C5RYK2 1-341, looked up)
# chain: MSNITFYFPFGHVPTYGGDFVNLEHIRALNKHGFSAKVILMKNQIPIVIESFPKDIPVVFYKPGMELNAQDVFVLSEGVRIMYSGLAQTQAFRVIVHNQNPFYTHTGMDSAHDINRYRITKIITPSHYTVKKLEEMGITKPMAVISPYIPEYFKPAEKSNEEIRITYSRRKREEESKILLFYLRSLYRGKKALHIRNLTNYKREEVAEEMSKAHIYASFAERESLGLMALEAMASGCHVVGFSGFTDFENQDVFNEENGDWVKEGEYKKFAEKLIEAIEQIENNTPSPKIENGLALVNSRFRQDRFEQEVVRVYQDILDNLPPLEGFNESDKVVLDFWHFD
# notes: AmGGT, product of the ORF AM305_00150 of Actinobacillus minor strain NM305; ORF retrieved from NCBI, chemically synthesized, cloned into pET47b; The whole ORF was cloned; residues left over from the 3C protease site after cleavage are not described; also called AM305_00150 protein; WT AmGGT; source: E. coli BL21(DE3), purified (Ni-Sepharose, 3C protease cleavage, gel filtration; also HiTrapQ ion …)
# B2: AmGGT E135A mutant (enzyme)
# chain: MSNITFYFPFGHVPTYGGDFVNLEHIRALNKHGFSAKVILMKNQIPIVIESFPKDIPVVFYKPGMELNAQDVFVLSEGVRIMYSGLAQTQAFRVIVHNQNPFYTHTGMDSAHDINRYRITKIITPSHYTVKKLEAMGITKPMAVISPYIPEYFKPAEKSNEEIRITYSRRKREEESKILLFYLRSLYRGKKALHIRNLTNYKREEVAEEMSKAHIYASFAERESLGLMALEAMASGCHVVGFSGFTDFENQDVFNEENGDWVKEGEYKKFAEKLIEAIEQIENNTPSPKIENGLALVNSRFRQDRFEQEVVRVYQDILDNLPPLEGFNESDKVVLDFWHFD
# notes: AmGGT, product of the ORF AM305_00150 of Actinobacillus minor strain NM305, with E135A; Production of the mutants is not described separately; source: E. coli BL21(DE3), purified (as told for the AmGGT protein); not shown: His6, N-terminal, cleaved
# B3: AmGGT S185A mutant (enzyme)
# chain: MSNITFYFPFGHVPTYGGDFVNLEHIRALNKHGFSAKVILMKNQIPIVIESFPKDIPVVFYKPGMELNAQDVFVLSEGVRIMYSGLAQTQAFRVIVHNQNPFYTHTGMDSAHDINRYRITKIITPSHYTVKKLEEMGITKPMAVISPYIPEYFKPAEKSNEEIRITYSRRKREEESKILLFYLRALYRGKKALHIRNLTNYKREEVAEEMSKAHIYASFAERESLGLMALEAMASGCHVVGFSGFTDFENQDVFNEENGDWVKEGEYKKFAEKLIEAIEQIENNTPSPKIENGLALVNSRFRQDRFEQEVVRVYQDILDNLPPLEGFNESDKVVLDFWHFD
# notes: AmGGT, product of the ORF AM305_00150 of Actinobacillus minor strain NM305, with S185A; Production of the mutants is not described separately; source: E. coli BL21(DE3), purified (as told for the AmGGT protein); not shown: His6, N-terminal, cleaved
# Target: the molecule itself
# Assay: SEC; gel-filtration chromatography of purified AmGGT and its mutants, with protein size markers; self-association, dimer against monomer
Protein,stoichiometry N,binding result
B1,2,
B2,,binds
B3,,binds
